Laboratory results: patent US20130251712A1 (NATIONAL RESEARCH COUNCIL OF CANADA, published 2013)
One block for each binder: values may come before it.

Legend:
[1] = molecular target: T1, TβR2ECD-cK5 (TβR2ECD with linker cassette fused to the cK5 C-terminal construct) (human); experiment: non-reducing SDS gel and western blot with anti-TβR2 antibody; E/K coil dimer fixed by an interchain disulfide
T1 construct: Conditioned medium of 293 cells, expressed alone; also called TβR2-K5coil with internal cys/TEV
T1 chain: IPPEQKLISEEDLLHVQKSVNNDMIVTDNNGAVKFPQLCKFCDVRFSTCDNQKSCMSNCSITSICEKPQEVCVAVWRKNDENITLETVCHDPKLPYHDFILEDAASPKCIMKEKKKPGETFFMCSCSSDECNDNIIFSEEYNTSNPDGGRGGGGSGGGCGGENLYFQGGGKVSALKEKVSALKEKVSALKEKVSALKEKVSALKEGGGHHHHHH

[2] = molecular target: T2, TβR2cK (R2cK), receptor-coil fusion with thrombin cleavage site, expressed alone (human); experiment: non-reducing SDS gel and western blot with anti-TβRII antibody; E/K coil dimer fixed by an interchain disulfide
T2 construct: Conditioned medium of 293 cells; also called TβR2cKcoil
T2 chain: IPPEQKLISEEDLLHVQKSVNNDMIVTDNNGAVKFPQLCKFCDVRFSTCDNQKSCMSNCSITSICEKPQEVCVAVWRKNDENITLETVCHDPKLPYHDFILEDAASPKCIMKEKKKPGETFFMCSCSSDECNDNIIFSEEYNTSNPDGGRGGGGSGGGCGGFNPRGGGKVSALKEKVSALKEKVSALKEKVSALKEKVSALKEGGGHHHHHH
Description: Plasmids encoding the R2cK and R2cE constructs were transfected separately or co-transfected into 293 cells. Conditioned media from these cells were then analyzed by western blot to detect R2cK and R2cE expression and tested for TGF-β3 neutralization (FIG. 6A-C). By themselves R2cE or R2cK were unable to neutralize TGF-β3. […] Based on their activities in FIG. 6A, these forms are non-productive, i.e. cannot neutralize TGF-β. Expressed together, R2cE+R2cK predominantly form dimers of about 80 Kd and only minimal amounts of the monomers are seen in the non-reducing gel (FIG. 6B, lane 3), indicating a covalent, inter-chain disulfide bridge has been established (Click, FIG. 6B). Subsequent cleavage of R2cE+R2cK with a sufficient amount of thrombin (++) generates an R2c+R2c dimer (about 60 Kd) that is held together by an inter-chain disulfide (in the non-reducing SDS gel) and that no longer contains the coils (Cleave, FIG. 6C). The resultant TGF-/3 trap generated by the clamp/click/cleave (CCC) process described above is depicted as a molecular model in FIG. 7.

binding result [1]: binds
B1: TβR2ECD-cE5 (TβR2ECD with linker cassette fused to the cE5 C-terminal construct) (receptor)
chain: IPPEQKLISEEDLLHVQKSVNNDMIVTDNNGAVKFPQLCKFCDVRFSTCDNQKSCMSNCSITSICEKPQEVCVAVWRKNDENITLETVCHDPKLPYHDFILEDAASPKCIMKEKKKPGETFFMCSCSSDECNDNIIFSEEYNTSNPDGGRGGGGSGGGCGGENLYFQGGGEVSALEKEVSALEKEVSALEKEVSALEKEVSALEKGGGHHHHHH
notes: Secreted into conditioned medium of transfected 293 cells; tested unpurified, expressed alone; also called TβR2-E5coil with internal cys/TEV

binding result [2]: binds
B2: TβR2cE (R2cE), receptor-coil fusion with thrombin cleavage site, expressed alone (receptor)
chain: IPPEQKLISEEDLLHVQKSVNNDMIVTDNNGAVKFPQLCKFCDVRFSTCDNQKSCMSNCSITSICEKPQEVCVAVWRKNDENITLETVCHDPKLPYHDFILEDAASPKCIMKEKKKPGETFFMCSCSSDECNDNIIFSEEYNTSNPDGGRGGGGSGGGCGGFNPRGGGEVSALEKEVSALEKEVSALEKEVSALEKEVSALEKGGGHHHHHH
notes: Conditioned medium of 293 cells; also called TβR2cEcoil
